The values below come from patent publication US20180119150A1.

The target of the experiment is FLT3 (human) (UniProt P36888). Briefly: cell-based or functional assay.
Chain of UniProt P36888 (P36888 27-993): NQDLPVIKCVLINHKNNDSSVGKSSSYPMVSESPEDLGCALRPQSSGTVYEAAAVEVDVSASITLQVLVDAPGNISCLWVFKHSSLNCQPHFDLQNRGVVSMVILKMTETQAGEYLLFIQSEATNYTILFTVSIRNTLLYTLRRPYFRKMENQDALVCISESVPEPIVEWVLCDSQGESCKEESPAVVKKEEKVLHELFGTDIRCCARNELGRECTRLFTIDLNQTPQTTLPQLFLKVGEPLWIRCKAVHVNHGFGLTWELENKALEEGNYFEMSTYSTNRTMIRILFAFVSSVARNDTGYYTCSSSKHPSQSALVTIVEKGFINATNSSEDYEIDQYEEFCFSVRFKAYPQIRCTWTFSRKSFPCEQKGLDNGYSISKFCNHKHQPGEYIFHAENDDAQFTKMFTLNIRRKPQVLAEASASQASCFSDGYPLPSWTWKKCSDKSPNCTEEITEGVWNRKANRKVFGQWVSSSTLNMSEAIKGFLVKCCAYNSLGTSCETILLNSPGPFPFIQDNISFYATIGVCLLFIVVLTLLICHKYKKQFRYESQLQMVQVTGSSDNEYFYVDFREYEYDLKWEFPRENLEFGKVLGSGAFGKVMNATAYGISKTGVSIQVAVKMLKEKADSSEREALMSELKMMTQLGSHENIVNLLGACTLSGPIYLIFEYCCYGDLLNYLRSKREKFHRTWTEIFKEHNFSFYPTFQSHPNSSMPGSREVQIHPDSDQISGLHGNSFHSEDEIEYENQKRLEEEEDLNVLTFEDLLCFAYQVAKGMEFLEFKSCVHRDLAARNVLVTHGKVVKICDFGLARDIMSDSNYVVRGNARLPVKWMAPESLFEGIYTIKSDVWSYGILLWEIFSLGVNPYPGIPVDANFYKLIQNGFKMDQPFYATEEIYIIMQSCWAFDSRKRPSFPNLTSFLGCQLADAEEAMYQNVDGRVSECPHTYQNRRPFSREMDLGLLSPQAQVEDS

On to “FLT3L-conjugated Generation 7 (G7) PAMAM (G7-FLT3L) dendrimers (from UniProt P49771 27-181) (ligand)”, for which the one-hour uptake ratio is 23.6%. The value for G7-H2B control nanoparticles was 5.9%.
